{"source": "IntAct's records for PubMed 16501113", "parents": {"B1": {"name": "Probable early E4 11 kDa protein (Human adenovirus C serotype 5 (HAdV-5)), P04489 (parent)", "chain": "MIRCLRLKVEGALEQIFTMAGLNIRDLLRDILRRWRDENYLGMVEGAGMFIEEIHPEGFSLYVHLDVRAVCLLEAIVQHLTNAIICSLAVEFDHATGGERVHLIDLHFEVLDNLLE"}}}
{"variants_of": "B1", "settings": "with PML"}
{"variant": "L103A", "effect of a mutation on the interaction": "disrupting interaction"}
{"variants_of": "B1", "settings": "with PML", "remark": "another data set of the same source"}
{"variant": "E10A", "effect of a mutation on the interaction": "decreasing interaction"}
{"variant": "C4A", "effect of a mutation on the interaction": "decreasing interaction"}
{"variant": "E74A", "effect of a mutation on the interaction": "decreasing interaction"}
{"variant": "N82A", "effect of a mutation on the interaction": "disrupting interaction"}
